From patent US20040086528A1

Columns and labels:
[1] = target: recombinant, monomeric JR-FL gp120 (full-length) (HIV-1 JR-FL) (UniProt P20871); assay: JR-FL gp120 (2 µg/ml) against 125I-MIP-1β on activated CD4+ T cells; antibody at 20 µg/ml
[2] = target: chemokine receptor C-C CKR-5 (human) (human) (UniProt P51681); assay: 125I-MIP-1β (0.1 nM) competition on activated CD4+ T cells; gp41 at 5 µg/ml
[3] = target: wild-type CCR5, HA-tagged at the C-terminus (human) (UniProt P51681)
[4] = target: chemokine receptor C-C CKR-5 (human) (human) (UniProt P51681); assay: 125I-MIP-1β (0.1 nM) competition on activated CD4+ T cells; gp120 at 5 µg/ml
[5] = target: chemokine receptor C-C CKR-5 (human) (human) (UniProt P51681); assay: 125I-MIP-1β (0.1 nM) competition on activated CD4+ T cells; gp120 at 20 µg/ml
[6] = target: chemokine receptor C-C CKR-5 (human) (human) (UniProt P51681); assay: 125I-MIP-1β (0.1 nM) competition on activated CD4+ T cells; gp120 at 50 µg/ml
[7] = target: chemokine receptor C-C CKR-5 (human) (human) (UniProt P51681); assay: 125I-MIP-1β (0.1 nM) competition on activated CD4+ T cells; gp120 at 0.1 µg/ml
[8] = target: chemokine receptor C-C CKR-5 (human) (human) (UniProt P51681); assay: 125I-MIP-1β (0.1 nM) competition on activated CD4+ T cells; gp120 at 0.2 µg/ml
[9] = target: chemokine receptor C-C CKR-5 (human) (human) (UniProt P51681); assay: 125I-MIP-1β competition, CD4- CCR-5+ 293 cells against activated CD4+ T cells
[10] = target: chemokine receptor C-C CKR-5 (human) (human) (UniProt P51681); assay: 125I-MIP-1β (0.1 nM) competition on activated CD4+ T cells; gp120 at .05 µg/ml [sic]
[11] = target: chemokine receptor C-C CKR-5 (human) (human) (UniProt P51681); assay: 125I-MIP-1β competition on CD4- CCR-5+ 293 cells; gp120 at 50 µg/ml; strongest competition observed
[12] = target: HIV-1 JR-FL envelope glycoproteins (membrane-bound gp120/gp41) (HIV-1 JR-FL); assay: cell-based or functional assay

monoclonal antibody 19b
Inhibition (%) of the gp120 competitive effect on 125I-MIP-1β binding [1]: 88%

monoclonal antibody 48d
Inhibition (%) of the gp120 competitive effect on 125I-MIP-1β binding [1]: 54%

monoclonal antibody 447-D
Inhibition (%) of the gp120 competitive effect on 125I-MIP-1β binding [1]: 109%

monoclonal antibody 697-D
Inhibition (%) of the gp120 competitive effect on 125I-MIP-1β binding [1]: 3%

monoclonal antibody A32
Inhibition (%) of the gp120 competitive effect on 125I-MIP-1β binding [1]: 51%

monoclonal antibody IgG1b12
Inhibition (%) of the gp120 competitive effect on 125I-MIP-1β binding [1]: 125%

recombinant gp41 (IIIB) ectodomain
percentage inhibition of 125I-MIP-1β binding [2]: 24%

recombinant, monomeric JR-FL gp120 (full-length), P20871 32-503 (other; other documents disagree on this pair)
inhibition of 2D7-PE binding (%) [3]: 70%
percentage inhibition of 125I-MIP-1β binding [4]: 67%
percentage inhibition of 125I-MIP-1β binding [5]: 91%
percentage inhibition of 125I-MIP-1β binding [6]: 95%
percentage inhibition of 125I-MIP-1β binding [7]: 44%
percentage inhibition of 125I-MIP-1β binding [8]: 40%
fold higher gp120 concentration needed on CD4- cells than on CD4+ cells [9]: > 100 fold
percentage inhibition of 125I-MIP-1β binding [10]: 58%
percent inhibition of MIP-1β binding [11]: 73%

recombinant, monomeric LAI gp120 (full-length) (from UniProt P03377 33-516) (other; other documents disagree on this pair)
percentage inhibition of 125I-MIP-1β binding [4]: -5%
percentage inhibition of 125I-MIP-1β binding [5]: -18%
percentage inhibition of 125I-MIP-1β binding [6]: -6%
percentage inhibition of 125I-MIP-1β binding [10]: -1%

soluble, oligomeric 92RW020 gp120/gp41 complex
percentage inhibition of 125I-MIP-1β binding [7]: 21%
percentage inhibition of 125I-MIP-1β binding [8]: 49%
percentage inhibition of 125I-MIP-1β binding [10]: 74%

soluble, oligomeric JR-FL gp120/gp41 complex
percentage inhibition of 125I-MIP-1β binding [7]: 46%
percentage inhibition of 125I-MIP-1β binding [8]: 56%
percentage inhibition of 125I-MIP-1β binding [10]: 84%

synthetic ECL2 peptide of human CCR5 (from UniProt P51681 168-199)
inhibition of fusion between HeLa-envJR-FL cells and PM1 cells (RET), peptide at 11 µg/ml [12]: 15%
inhibition of fusion between HeLa-envJR-FL cells and PM1 cells (RET), peptide at 33 µg/ml [12]: 65%
inhibition of fusion between HeLa-envJR-FL cells and PM1 cells (RET), peptide at 100 µg/ml [12]: 97%
